For assay [1], the target named is Human LTBR (Acro), recombinant protein (human, UniProt P36941 31-227, limits assumed). Kind of assay: SPR (Carterra LSA), antibody captured by anti-human Fc, LTBR as analyte. The protocol:
(§1) The binding of anti-LTBR antibodies to human and cynomolgus LTBR was investigated by Surface Plasmon Resonance (SPR) on Carterra LSA. An EC30M chip was used to capture the test antibodies. Activation with EDC and sNHS occurred in MES pH 5.5 to prepare the chip for amine coupling. Goat anti-human IgG Fc antibody was then captured to the chip via incubation for 10 minutes. Excess conjugation sites were quenched with 1M Ethanolamine pH 8. To measure monovalent binding kinetics, antibodies were printed/spotted onto the chip and allowed to bind to the goat antibody, followed by subsequent washing. After the preparation, the printed chip was exposed to repeated rounds of association and dissociation with increasing analyte concentrations. In this work, recombinant proteins (Human LTBR (Acro) or cyno LTBR His (R&D)) were serially diluted across a range starting at 1500 nM with 3-fold dilutions and 10 points. The curves were fitted to global fit in a 1:1 binding model to obtain KD values. The binding affinity to both species is reported.

Assay [2] has as its target T1, cyno LTBR His (R&D), recombinant protein (cynomolgus (Macaca fascicularis), UniProt P36941 31-227 (human entry), limits assumed).
T1 construct: bought protein used as analyte on Carterra LSA
The description is as above. As for the experimental part:
as §1

The target of assay [3] is mouse LTBR on cells (4T1 tumor cell line; primary mouse lung fibroblasts) (mouse, UniProt P50284 31-415). Kind of assay: cell-based or functional assay.
Assay [4] deals with T2, human LTBR endogenously expressed on cells (HepG2, A549, A375, HCC1187, RPMI-7951, primary human breast CAFs) (human, UniProt P36941 31-435).
T2 construct: also called lymphotoxin beta receptor; TNFRSF3
Kind of assay: flow cytometry, A375 cells. The protocol:
For binding to LTBR-positive cells, the A375 tumor cell line was used. At the same time, binding to LTBR-negative HEK293 cells was tested to confirm specificity. In short, the cells were resuspended in the FACS binding buffer, and live/dead efluro450 viability dye was added at a 1:1000 dilution to the cell suspension, followed by incubation at room temperature in the dark for 30 minutes. The cells were then diluted to 2 e5/ml, and 100 ul was added to wells of a 96-well U-bottom plate as required. […] The cells were pelleted by centrifugation, and the supernatant was discarded, followed by the addition of a series of dilutions of anti-LTBR antibodies and incubation for 45 minutes at 4 C in the dark. Cells were washed two times with PBS with 3% (w/v) BSA before adding 60 ul of fluorescently labelled secondary antibody (goat anti-human IgG) diluted to 1:200 in PBS. Incubation continued at 4 C for at least 30 minutes, followed by two washes in PBS pH 7.4. Cells were either fixed with 2% PFA (30 minutes at 4 C) followed by washout and storage in 100 ul of PBS or immediately analysed on a Flow Cytometer. The data were analysed using FloJo V10 and GraphPad Prism. No binding to the HEK cell line was detected for any tested clones, confirming the specific interaction between anti-LTBR antibodies and LTBR receptor. The results are summarised in.

The target of assay [5] is T2, human LTBR endogenously expressed on …. Nature of the assay: cell-based or functional assay.
The target is the same in assay [6]. Kind of assay: cell-based or functional assay. This is another data set of the same source.
Assay [7] has the same target. Nature of the assay: cell-based or functional assay. This is another data set of the same source.

The source of these data is US20260176336A1 (MESTAG THERAPEUTICS, published 2026).

A word on the Kd: it is the constant that tells how readily two partners part at equilibrium. As usually defined, the EC50 is the concentration that produces a half-maximal response. Low values mean greater potency, high ones weaker potency.

T1 sequence (P36941 other isoform, or with tags, fused parts or gaps limits assumed): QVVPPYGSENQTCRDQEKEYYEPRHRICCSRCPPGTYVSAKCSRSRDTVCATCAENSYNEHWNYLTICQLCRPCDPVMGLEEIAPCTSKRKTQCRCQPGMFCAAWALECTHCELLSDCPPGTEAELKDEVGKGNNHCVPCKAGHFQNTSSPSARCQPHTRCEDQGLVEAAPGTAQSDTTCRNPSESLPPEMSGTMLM
Human LTBR (Acro), recombinant protein, sequence (P36941 31-227 limits assumed): as the sequence (P36941 other isoform, or with tags, fused parts or gaps limits assumed) above, with V2A, G7A, R24Q, S45I, D163N, R181K, S184L, S186P counted along it
T2 sequence (P36941 31-435): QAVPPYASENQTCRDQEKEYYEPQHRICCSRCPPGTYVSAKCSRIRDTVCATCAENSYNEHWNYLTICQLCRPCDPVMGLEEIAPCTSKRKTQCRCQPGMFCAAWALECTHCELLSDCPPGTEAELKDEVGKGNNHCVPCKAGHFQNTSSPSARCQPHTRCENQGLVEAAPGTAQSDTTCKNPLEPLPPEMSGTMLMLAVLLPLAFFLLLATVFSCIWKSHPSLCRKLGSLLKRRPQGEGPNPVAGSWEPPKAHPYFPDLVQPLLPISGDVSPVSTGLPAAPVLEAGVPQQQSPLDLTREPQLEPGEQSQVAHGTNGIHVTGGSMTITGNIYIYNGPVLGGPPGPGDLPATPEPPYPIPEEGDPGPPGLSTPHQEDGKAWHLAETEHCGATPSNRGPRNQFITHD
mouse LTBR on cells (4T1 tumor cell line; primary mouse lung fibroblasts), sequence (P50284 31-415): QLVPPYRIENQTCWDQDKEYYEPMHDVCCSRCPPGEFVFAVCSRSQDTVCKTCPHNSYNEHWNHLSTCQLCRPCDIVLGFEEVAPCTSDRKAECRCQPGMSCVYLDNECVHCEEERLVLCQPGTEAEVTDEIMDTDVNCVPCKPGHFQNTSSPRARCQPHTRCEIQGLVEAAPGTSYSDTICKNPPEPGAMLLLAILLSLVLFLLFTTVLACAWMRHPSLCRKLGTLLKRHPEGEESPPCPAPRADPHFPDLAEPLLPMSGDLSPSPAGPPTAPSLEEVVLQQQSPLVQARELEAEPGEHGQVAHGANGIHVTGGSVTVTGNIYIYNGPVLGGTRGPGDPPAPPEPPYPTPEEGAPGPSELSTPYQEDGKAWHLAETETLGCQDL

B1: Clone 2.8 (antibody, V domains shown)
VH: QVQLQESGPGLVKPSGTLSLTCAVSGGSISSSNWWSWVRQPPGKGLEWIGDIYHDGTTYYNPSLKSRVTVSVDKSKNQFSLKLSSVTAADTAVYYCARSPSGTTDYFDYWGQGTLVTVSS
VL: DIQMTQSPSSLSASVGDRVNITCRASQSISSYLNWYQQKPGKAPKLLIYAPSSLQSGVPSRFSGGGSGTDFTLTISSLQPEDFATYFCQQSYSTPPTFGPGTKVDIK
notes: anti-LTBR mAb (bivalent)
For the molecule B1, the Kd in assay [1] was determined as 0.28 nM; in assay [2] it was 2.6 nM.

B2: Clone 4.15 (antibody, V domains shown)
VH: QVQLKESGPGLVQPSQTLSLTCTVSGFSLTTYSVHWVRQHSGKSLEWMGRMWTDGDTSYNSAFTSRLSISRDTSKSQVFLKMNSLQTEDTGTYYCARGYWYFDFWGPGTMVTVSS
VL: DVQMTQSPSYLAASPGESVSIRCKASKSISNNLAWYQEKPGKANKLLIHSGSTLQSGTPSRFSGSGSGTDFTLTIRSLEFEDFAVYYCQQYNEYPYTFGAGTKLELK
For B2, in assay [3], the “4T1 monoculture CCL5 read-out EC50” value was found to be 0.84 nM and the “4T1 monoculture CCL5 read-out EC50, 4.15 + cross-linking antibody” value was found to be 0.036 nM.

B3: Clone 2.5 (antibody, V domains shown)
VH: EVQLVESGGGLVQPGRSLRLSCAASGFTFDDYDIHWVRQAPGKGLEWVSGINWNSITIGYADSVKGRFTISRDNAKNSLYLQMNSLRAEDTALYYCAKDRGSGWRIFDYWGQGTLVTVSS
VL: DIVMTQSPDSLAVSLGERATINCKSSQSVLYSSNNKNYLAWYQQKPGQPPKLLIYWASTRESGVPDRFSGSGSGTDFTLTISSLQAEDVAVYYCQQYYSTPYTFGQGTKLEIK
notes: anti-LTBR mAb (bivalent)
B3: the EC50 in assay [4] turned out to be 5.4 nM. Also, the Kd in assay [1] was 2.1 nM. Moreover, the Kd in assay [2] was determined as 1.6 nM. Further, in assay [5], the “HepG2 reporter assay EC50 (w/o cross-linking antibody)” value is 0.24 nM and the “HepG2 reporter assay EC50 (with cross-linking antibody)” value was 0.14 nM.

B4: Clone 2.2 (antibody, V domains shown)
VH: EVQLVESGGGLVKPGGSLRLSCAASRFTFSSYSMNWVRQAPGKGLEWVSSISPSSSYIYYADSVKGRFTISRDNAKNSLYLQMNSLRAEDTAVYYCARDHYNWNFDALDIWGQGTMVTVSS
VL: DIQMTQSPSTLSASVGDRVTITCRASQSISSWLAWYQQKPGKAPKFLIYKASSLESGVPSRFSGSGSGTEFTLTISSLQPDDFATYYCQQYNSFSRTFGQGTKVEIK
notes: anti-LTBR mAb (bivalent)
In assay [4], B4 returned an EC50 of 0.72 nM. Also, the Kd in assay [1] worked out at 0.56 nM. For the same molecule, the Kd in assay [2] was found to be 0.71 nM. Also, in assay [5], the “HepG2 reporter assay EC50 (w/o cross-linking antibody)” value was 17 nM and the “HepG2 reporter assay EC50 (with cross-linking antibody)” value is 0.19 nM.

B5: Clone 2.7 (antibody, V domains shown)
VH: EVQLVESGGGLVQPGGSLRLSCAASGFIFDDYDMHWVRQAPGKGLEWVSGINWNSNRVDYADSVKGRFTISRDNARNSLYLQMNSLRPEDTAFYYCVKDKTSSWYVFDSWGQGTPVTVSS
VL: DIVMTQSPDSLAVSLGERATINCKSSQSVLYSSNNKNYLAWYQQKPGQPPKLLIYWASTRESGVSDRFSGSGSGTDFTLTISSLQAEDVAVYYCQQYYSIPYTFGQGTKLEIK
notes: anti-LTBR mAb (bivalent)
As to B5, it took 9.5 nM to reach a half-maximal effect in assay [4] (EC50). The Kd in assay [1] turned out to be 4.3 nM; in assay [2], 1.3 nM. Also, in assay [5], the “HepG2 reporter assay EC50 (w/o cross-linking antibody)” value came out at 0.17 nM. Besides, the “HepG2 reporter assay EC50 (with cross-linking antibody)” value in assay [5] was 0.18 nM.

B6: Clone 2.4 (antibody, V domains shown)
VH: QVQLVESGGGVVQPGRSLRLSCAASGFTFSSYGIHWVRQAPGKGLEWVAVIWYDGSNKYYADSVKGRFTISRDNSKNTLYLQMNSLRAEDTAVYYCARDGGTGNYYYMDVWGKGTTVTVSS
VL: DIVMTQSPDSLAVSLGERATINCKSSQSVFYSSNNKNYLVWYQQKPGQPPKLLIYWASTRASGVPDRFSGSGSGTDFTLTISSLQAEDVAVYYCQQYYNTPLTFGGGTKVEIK
notes: anti-LTBR mAb (bivalent)
On to B6, for which the Kd is 36 nM in assay [1] and 53 nM in assay [2]. For the same molecule, the “HepG2 reporter assay EC50 (with cross-linking antibody)” value in assay [5] came out at 0.09 nM.

B7: Clone 2.1 (antibody, V domains shown)
VH: EVQLVESGGGLVKPGGSLRLSCAASGFTFSSYCMNWVRQAPGKGLEWVSSISTGNTYIYYSDSVKGRFTISRDNAKNSLYLQMNSLRAEDTAVYYCARARYNWNYDAFDIWGQGTMVTVSS
VL: DIQMTQSPSSLSASIGDRVTITCQASQDISNFLSWYQQKPGKAPNLLIFDASNLETGVPSRFSESGSGTDFSFTITSLQPEDIATYYCQQYYNVPLTFGGGTKVEIK
notes: anti-LTBR mAb (bivalent)
Turning to B7, in assay [4], the 50% effective concentration (EC50) is 1 nM. Also, the Kd in assay [1] is 0.25 nM; in assay [2], 0.26 nM. Moreover, in assay [5], the “HepG2 reporter assay EC50 (with cross-linking antibody)” value worked out at 0.16 nM.

B8: Clone 4.10 (bispecific antibody, human IgG1, kappa, L234A L235A)
heavy 1: not shown
heavy 2: EVQLVESGGGLVKPGGSLRLSCVASGFTFSLAWMNWVRQAPGKGLEWVGHIKSRADGGSTDYAAPVKGRFTISRDDSKNTLYLHMNSLKTEDTAVYFCSRFYWNYVLDYWGQGTLVTVSSASTKGPSVFPLAPSSKSTSGGTAALGCLVKDYFPEPVTVSWNSGALTSGVHTFPAVLQSSGLYSLSSVVTVPSSSLGTQTYICNVNHKPSNTKVDKKVEPKSCDKTHTCPPCPAPEAAGGPSVFLFPPKPKDTLMISRTPEVTCVVVDVSHEDPEVKFNWYVDGVEVHNAKTKPREEQYNSTYRVVSVLTVLHQDWLNGKEYKCKVSNKALPAPIEKTISKAKGQPREPQVCTLPPSRDELTKNQVSLSCAVKGFYPSDIAVEWESNGQPENNYKTTPPVLDSDGSFFLVSKLTVDKSRWQQGNVFSCSVMHEALHNHYTQKSLSLSPGK
light: DIQMTQSPSSLSASVGDRVTITCRASQSINSYFNWYQQKPGKAPKLLIYAASGLQSGVPSRFSGSGSGTDFTLTISSLQPEDFATYYCQQSYSPPYTFGQGTNLEIKRTVAAPSVFIFPPSDEQLKSGTASVVCLLNNFYPREAKVQWKVDNALQSGNSQESVTEQDSKDSTYSLSSTLTLSKADYEKHKVYACEVTHQGLSSPVTKSFNRGEC
As to B8, the “CCL19 upregulation, HCC1187:CAF Co-culture EC50” value in assay [6] was found to be 0.41 nM. Besides, the “HepG2 Reporter assay, HepG2:FAP-CHO-K1 Co-culture EC50” value in assay [7] turned out to be 0.036 nM.

B9: Clone 2.6 (antibody, V domains shown)
VH: QVQLVQSGTEMKKPGASVKVSCKASGYTFSSYDISWVRQAPGQGLEWMGWFSAYNGNSNYAQKFQGRVTMTTDTSTNTAYMELRSLRSDDTAVYYCAREGYYGNSGFFDYWGQGTLVTVSS
VL: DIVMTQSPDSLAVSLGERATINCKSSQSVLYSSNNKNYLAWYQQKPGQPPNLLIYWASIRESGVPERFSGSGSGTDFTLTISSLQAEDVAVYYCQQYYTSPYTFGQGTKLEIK
notes: anti-LTBR mAb (bivalent)
B9: the EC50 in assay [4] was determined as 3.5 nM. In assay [1], the Kd is 0.18 nM. The Kd in assay [2] was 0.024 nM. In assay [5], the “HepG2 reporter assay EC50 (w/o cross-linking antibody)” value was 0.073 nM and the “HepG2 reporter assay EC50 (with cross-linking antibody)” value stood at 0.1 nM.

B10: Clone 2.3 (antibody, V domains shown)
VH: EVQLVESGGGLVQPGGSLRLSCAASGFTFSSYAMSWVRQAPGKGLEWVSGISGSGGRTNYADSVKGRFTISRDNSKNTLYLQMNSLRAEDTAVYYCAKSDNWHYLDAFDIWGQGTMVTVSS
VL: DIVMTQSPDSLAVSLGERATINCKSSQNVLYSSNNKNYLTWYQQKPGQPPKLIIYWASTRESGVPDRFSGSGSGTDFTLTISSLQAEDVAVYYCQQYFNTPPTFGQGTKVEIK
notes: anti-LTBR mAb (bivalent)
In assay [4], B10 gave an EC50 of 0.66 nM. In addition, the Kd in assay [1] is 0.58 nM. In addition, the Kd in assay [2] worked out at 0.39 nM. For the same molecule, in assay [5], the “HepG2 reporter assay EC50 (w/o cross-linking antibody)” value worked out at 0.13 nM and the “HepG2 reporter assay EC50 (with cross-linking antibody)” value stood at 0.043 nM.
